Assay results reported in paper PMC11832932.

Molecular target: HSC70 (UniProt P11142)
Assay: Flag IP, blot for HA-HSC70
Settings: reference: wild type, H2O2-treated cells; sites S371

## PHGDH (from UniProt O43175) S371A, H2O2-treated cells
  binding against the reference: weaker
